Experiments:
[1] = substrate: CC(C)=CCC/C(C)=C/CC/C(C)=C/CC/C(C)=C/COP(=O)(O)OP(=O)(O)O; experiment: purified protein; format: biochemical, Streptomyces sp.; settings: 10 mM MgCl2, 30 °C, GGDP 10-200 μM
[2] = target: the molecule itself; experiment: SEC

| Protein | Km [1] [µM] | kcat [1] [s⁻¹] | stoichiometry N [2] |
| --- | --- | --- | --- |
| DtcycA (enzyme, Streptomyces sp. SANK 60404, UniProt M1V9Q0 1-371, looked up) MTDPAVTPLAFSIPQLYCPFPTAIHPEVDTLTRAGMDFMTHHGFCNTEADRLVVANIDAGAIVARWYPNPDFPVDRLQMVTDFLYLYFLIDDLRFEVINSDTGLAGPIALFAQHLDLWEYPQAHRREELDLFHQAIHDLASRMAELTTPTKAARMRRSINGWFLALLREIALFNDDHAVMAEEYLPIRVVTVASRLMIDVNGFICPAEVPGDEWYSLKVQAAAEAAMSVCLYDNELYSAGKEQWLKSRATAHDRRPRNLVALIQAQTGGSTEHALQEVAEYRNRTVCLYLNLRSQLEKTASPALLAYLSVLDGVISGNLDAHATSSRYHNPDGHHPHAIAFTPLRTTDECSARAHTPIAPPIAWWWEQLDQ | 93.7 ± 8.4 | 0.0467 | 2 |
| DtcycB (enzyme, Streptomyces sp. SANK 60404, UniProt M1VDX3 1-343, looked up) MDLPPALLSFYCPIASEVSPEHEAVAQEMYAWIHAMSLTSDNRQAKMLAQAGAGFNSYFTPRARGELARALSKYNVCAWIANGMVQEIRDPGTFGAMAARWARIMEEPATCPADGIPMDFALADAFSHIRRTLSPVKWQHFSAAQSHWMHGLAWENCLHQVKGLTVHDYLSFRYVMSGCFAAAAFAYAVPERHPSAEEWAHPKVRAAADAAMMVDALDNDRYSYLKESLTEADKKTIFAALRHENPALGREEVIVRGVQLRDRILTLYLTLRGELLCDASEGLRSYLTGLDLIIAGNLVFCADMGLRYGLPEGSVRTDAEPLDRTVAPPGIGAIDHWWAQAGA | 42.1 ± 7.3 | 0.0217 | 2 |
